Assay results from paper PMC9120130.

Target: Human ACE2-hIgG1Fc (human) (UniProt Q9BYF1)
Experiment: SPR

Sequence of Human ACE2-hIgG1Fc (human) (Q9BYF1 18-740): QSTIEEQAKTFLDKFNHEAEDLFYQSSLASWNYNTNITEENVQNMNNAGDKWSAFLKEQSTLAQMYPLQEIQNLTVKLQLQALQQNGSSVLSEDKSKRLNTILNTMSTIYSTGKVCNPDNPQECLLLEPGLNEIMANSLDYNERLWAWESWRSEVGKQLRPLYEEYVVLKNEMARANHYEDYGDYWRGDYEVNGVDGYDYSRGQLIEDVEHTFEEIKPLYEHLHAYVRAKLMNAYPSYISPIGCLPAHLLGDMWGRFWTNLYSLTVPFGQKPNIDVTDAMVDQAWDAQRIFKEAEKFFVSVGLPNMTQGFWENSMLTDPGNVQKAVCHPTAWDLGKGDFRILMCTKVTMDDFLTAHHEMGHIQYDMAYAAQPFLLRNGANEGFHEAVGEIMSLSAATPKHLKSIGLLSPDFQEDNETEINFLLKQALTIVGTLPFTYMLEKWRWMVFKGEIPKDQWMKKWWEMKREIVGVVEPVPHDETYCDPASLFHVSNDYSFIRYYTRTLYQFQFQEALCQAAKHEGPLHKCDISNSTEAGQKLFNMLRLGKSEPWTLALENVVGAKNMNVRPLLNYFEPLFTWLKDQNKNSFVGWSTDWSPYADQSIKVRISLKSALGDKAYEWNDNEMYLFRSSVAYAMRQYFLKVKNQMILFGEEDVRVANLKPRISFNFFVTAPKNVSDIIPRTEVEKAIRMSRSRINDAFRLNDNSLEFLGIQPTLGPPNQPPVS

Wuhan RBD
Kd: 7.3 nM
koff: 0.0051 s⁻¹
